Data on 9 molecules can be found in patent publication US20210347908A1 (ELPISCIENCE SUZHOU BIOPHARMA, published 2021).

The target of test [1] is T1, chimeric SIRPα of B-hSIRPA mice (IgV domain of human SIRPα); IgC1/C2, transmembrane and intracellular domains … (human; mouse, UniProt P78324 31-149; P97797 151-513, limits assumed).
T1 construct: domain: IgV domain;domain: IgC1/C2, transmembrane and intracellular domains; whole, on cells (mCD11b+ mF4/80+ spleen monocytes); also called B-hSIRPA mice derived primary monocytes
T1 sequence (P78324 other isoform, or with tags, fused parts or gaps mutant limits assumed): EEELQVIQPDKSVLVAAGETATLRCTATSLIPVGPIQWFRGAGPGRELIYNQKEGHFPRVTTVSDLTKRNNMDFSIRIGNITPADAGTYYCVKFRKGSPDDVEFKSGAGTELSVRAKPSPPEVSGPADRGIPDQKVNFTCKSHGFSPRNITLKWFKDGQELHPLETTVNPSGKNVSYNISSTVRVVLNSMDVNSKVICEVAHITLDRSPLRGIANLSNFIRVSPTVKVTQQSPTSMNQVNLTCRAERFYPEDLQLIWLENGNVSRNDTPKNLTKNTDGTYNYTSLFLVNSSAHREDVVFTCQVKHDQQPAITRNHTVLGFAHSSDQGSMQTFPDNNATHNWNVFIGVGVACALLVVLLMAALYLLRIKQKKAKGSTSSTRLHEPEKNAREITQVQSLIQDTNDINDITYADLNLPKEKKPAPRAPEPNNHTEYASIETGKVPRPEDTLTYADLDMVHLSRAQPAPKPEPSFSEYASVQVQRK
The test is described as follows: FACS on spleen cells of B-hSIRPA mice, anti-human IgG secondary antibody, gated on mCD11b/mF4/80 double positive monocytes. The procedure: The humanized mice express a chimeric SIRPα, comprised of IgV domain of human SIRPα and IgC1/C2, transmembrane and intracellular domains of mouse SIRPα. Briefly spleen cells of B-hSIRPA mice were harvested and incubated with anti-SIRPα chimeric antibodies at 4° C. for 1 hour. After washing, fluorescence labeled anti-human IgG 2nd antibody (Life Technologies) was added and incubated at 4° C. for 1 hour. […] Anti-SIRPα positive staining population in mCD11b and mF4/80 double positive subset was calculated.

For test [2], the target named is T2, 6×His tagged human SIRPα v1 ECD recombinant protein (human, UniProt P78324 31-373).
T2 construct: extracellular domain; bought; also called hSIRPα V1 (SPR antigen)
T2 sequence (P78324 other isoform, or with tags, fused parts or gaps): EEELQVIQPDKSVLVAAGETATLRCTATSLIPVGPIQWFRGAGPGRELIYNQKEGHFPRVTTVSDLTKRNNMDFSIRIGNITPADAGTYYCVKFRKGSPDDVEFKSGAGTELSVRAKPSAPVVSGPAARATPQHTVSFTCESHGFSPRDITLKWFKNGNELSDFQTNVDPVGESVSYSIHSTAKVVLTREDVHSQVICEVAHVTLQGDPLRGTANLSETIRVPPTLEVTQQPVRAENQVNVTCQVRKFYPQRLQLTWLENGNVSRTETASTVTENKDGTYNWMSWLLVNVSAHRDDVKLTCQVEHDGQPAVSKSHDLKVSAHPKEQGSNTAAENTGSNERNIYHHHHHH
The test is described as follows: SPR (Biacore). The procedure: (§1) Anti-SIRPα chimeric antibodies were characterized for binding affinity against human SIRPα v1, human SIRPα v2 and C57BL/6 mouse SIRPα using Biacore (GE). Briefly the antibodies to be tested were captured to CM5 chip (GE) using Human Antibody Capture Kit (GE). The antigens of 6×His tagged human SIRPα v1, human SIRPα v2 and C57BL/6 mouse SIRPα ECD recombinant proteins were serially diluted for multiple doses and injected at 30 μl/min for 180 s. Buffer flow was maintained for dissociation of 400 s. 3 M MgCl₂ was used for chip regeneration. The association and dissociation curves were fit with 1:1 binding model, and the Ka/Kd/KD values for each antibody were calculated.

For test [3], the target named is T3, 6×His tagged human SIRPα v2 ECD recombinant protein (human). The test is described as follows: SPR (Biacore). The procedure: as §1
T3 sequence (chain, as listed by the source): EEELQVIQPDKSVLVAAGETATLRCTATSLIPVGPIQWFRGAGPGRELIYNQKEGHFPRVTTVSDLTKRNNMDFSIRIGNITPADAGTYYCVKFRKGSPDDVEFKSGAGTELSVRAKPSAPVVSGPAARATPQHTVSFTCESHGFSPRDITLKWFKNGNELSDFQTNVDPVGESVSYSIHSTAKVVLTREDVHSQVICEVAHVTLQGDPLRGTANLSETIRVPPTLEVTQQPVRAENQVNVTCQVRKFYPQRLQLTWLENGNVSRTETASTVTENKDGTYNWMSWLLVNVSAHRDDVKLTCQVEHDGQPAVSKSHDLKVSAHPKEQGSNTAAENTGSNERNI
In general terms: Surface plasmon resonance follows binding to a sensor surface in real time, without labels.

Test [4] addresses T4, 6×His tagged C57BL/6 mouse SIRPα ECD recombinant protein (mouse (C57BL/6), UniProt P97797 32-373).
T4 construct: extracellular domain; bought; also called mSIRPα (C57BL/6); mouse SIRPα (C57BL/6) ECD
T4 sequence: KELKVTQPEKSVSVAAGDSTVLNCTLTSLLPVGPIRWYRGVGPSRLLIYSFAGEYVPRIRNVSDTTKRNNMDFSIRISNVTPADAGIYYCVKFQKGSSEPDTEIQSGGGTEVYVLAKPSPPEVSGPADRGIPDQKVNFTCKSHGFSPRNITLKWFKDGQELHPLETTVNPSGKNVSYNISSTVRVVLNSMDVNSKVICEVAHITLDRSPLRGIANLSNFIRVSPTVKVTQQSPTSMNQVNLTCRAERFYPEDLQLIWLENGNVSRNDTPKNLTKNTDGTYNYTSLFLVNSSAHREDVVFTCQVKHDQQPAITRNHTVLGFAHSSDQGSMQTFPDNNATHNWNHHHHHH
Description: SPR (Biacore), antibody captured. The procedure: as §1

Test [5] concerns the target T2, 6×His tagged human SIRPα v1 ECD …. Description: SPR (Biacore), antibody captured. The procedure: as §1
Test [6] concerns the target T3, 6×His tagged human SIRPα v2 ECD …. Description: SPR (Biacore), antibody captured. The procedure: as §1
In test [7] the target is T5, biotin labeled soluble human SIRPα v1 ECD recombinant protein (human, UniProt P78324 31-373, biotin labeled).
T5 construct: extracellular domain
T5 sequence (P78324 31-373): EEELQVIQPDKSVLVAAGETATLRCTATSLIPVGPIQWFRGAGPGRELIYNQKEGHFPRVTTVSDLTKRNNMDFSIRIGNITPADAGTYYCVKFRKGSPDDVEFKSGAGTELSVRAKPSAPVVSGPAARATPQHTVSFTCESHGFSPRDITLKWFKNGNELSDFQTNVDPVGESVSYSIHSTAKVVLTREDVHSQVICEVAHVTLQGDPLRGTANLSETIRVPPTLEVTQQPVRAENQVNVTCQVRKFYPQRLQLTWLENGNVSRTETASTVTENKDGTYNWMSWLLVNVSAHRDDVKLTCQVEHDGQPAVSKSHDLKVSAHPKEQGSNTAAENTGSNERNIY
The test is described as follows: competitive ELISA; competitor 074. The procedure:
(§2) Competitive ELISA assay was used for epitope binning of 9 functional antibodies. Briefly excessive competitor antibody and biotin labeled soluble human SIRPα v1 ECD recombinant protein were co-incubated with ELISA microplate coated antibody. After washing, HRP-SA was added and incubated at 37° C. for 1 hour. Then, […] of TMB solution (Biotechnology) was added. After incubation for 15 minutes at room temperature, the reaction was stopped by the addition of […] of 1N HCl. OD 450 nm was read. Competition ratio was calculated. The antibodies that can compete each other for binding to SIRPα have the similar binding epitope.

For test [8], the target named is T5, biotin labeled soluble human SIRPα v1 …. The test is described as follows: competitive ELISA; competitor 032. The procedure:
as §2
(An ELISA detects its analyte on a solid surface through an enzyme-linked reagent.)

Test [9] has the same target. The test is described as follows: competitive ELISA; competitor 035. The procedure: as §2
The target is the same in test [10]. The test is described as follows: competitive ELISA; competitor 022. The procedure: as §2

Changes are numbered by the printed parent chain.

B1: chimeric antibody 001c (antibody, V domains shown)
VH: EVKLEESGGGLVQPGGSMKLSCVASGFTFRNYWMNWVRQSPERGLEWIAEISLKSNTYATHYAESVKGRFAISRDGSKSSFYLQMNDLRAEDTGIYYCTTFTKVVADWHLDVWGAGTTVTVSS
VL: DVLMTQTPLSLPVSLGDQASISCRSSQNIVHSNGNTYLEWYLQKPGQSPKLLIYKVSNRFSGVPDRFSGSGSGTDFTLRISRVEAEDLGVYYCFQGSHVPFTFGSGTKLEIK
As for B1, the “Positive Staining Population (% in mCD11b, mF4/80 double positive subset)” value in test [1] was 91%. Moreover, the Kd (usually the concentration at which binding is half-saturated) in [2] came to 11.4 nM; in test [3], 20.6 nM; in [5] it was 11.4 nM; in [6], 20.6 nM. Also, the binding result in test [4] was “no binding”. The koff – broadly, the first-order rate constant of dissociation – was 0.000855 s⁻¹ in [5] and 0.000816 s⁻¹ in test [6]. In addition, the kon (in general, the second-order rate constant of association) stood at 74900 M⁻¹ s⁻¹ in [5] and 39700 M⁻¹ s⁻¹ in test [6].

B2: chimeric antibody 002c (antibody, V domains shown)
VH: B1 VH with K19I, S52T, G76D, A90P
VL: B1 VL with V56I, K112Q
As for B2, the “Positive Staining Population (% in mCD11b, mF4/80 double positive subset)” value in test [1] came to 88.9%. For the same molecule, the Kd was found to be 16.1 nM in test [2], 28.3 nM in test [3], 16.1 nM in [5] and 28.3 nM in test [6]. The binding result in [4] is reported as “no binding”. Moreover, the koff in test [5] was determined as 0.00148 s⁻¹; in [6], 0.00146 s⁻¹. The kon is 92000 M⁻¹ s⁻¹ in test [5] and 51600 M⁻¹ s⁻¹ in [6].

B3: chimeric antibody 032c (antibody, V domains shown)
VH: B1 VH with K3R, A24V, S52T, G76D, A90P
VL: B1 VL with S14N
Consider B3, for which, in test [1], the “Positive Staining Population (% in mCD11b, mF4/80 double positive subset)” value came to 91.5%. Further, the dissociation constant Kd in test [2] is 8.92 nM; in test [3], 14.7 nM; in [5], 8.92 nM; in [6], 14.7 nM. Besides, the dissociation rate constant (koff) in test [5] is 0.000834 s⁻¹; in test [6], 0.000774 s⁻¹. For the same molecule, the association rate constant (kon) is 93500 M⁻¹ s⁻¹ in test [5] and 52600 M⁻¹ s⁻¹ in test [6].

B4: chimeric antibody 050c (antibody, V domains shown)
VH: QIQLVQSGPELKKPGETVKISCKASGYTFTHYSMHWVKQAPGKGLKWMGWINTETAEPTYVDDFKGRFAFSLEASASTAFFQINNLKNEDTATYFCARGGLRQGDYWGQGTTLTVSS
VL: QIVLTQSPPIMSASPGEKVTLTCSATSSVSASYLYWFQQKPGSSPKLWIYSTSNLASGVPARFSGSGSGTSYSLTISNMEPADAASYFCHQWSSYPYTFGGGTKLEIK
Take B4: in test [1], the “Positive Staining Population (% in mCD11b, mF4/80 double positive subset)” value amounted to 0.16%. Moreover, the binding result in test [1] and in test [4] was “no binding” in each case. The Kd in test [2] worked out at 3.07 nM; in [3] it was 4.72 nM; in [5], 3.07 nM; in test [6] it was 4.72 nM. Besides, the off-rate constant (koff) was determined as 0.000774 s⁻¹ in test [5] and 0.000529 s⁻¹ in test [6]. The kon came to 252000 M⁻¹ s⁻¹ in test [5] and 112000 M⁻¹ s⁻¹ in test [6].

B5: Antibody 050 (hybridoma antibody) (antibody, V domains shown)
VH: B4 VH
VL: B4 VL
notes: mouse hybridoma antibody
Turning to B5, the “% Competition” value is 2% in test [7], 8% in test [8], -4% in [9] and 79% in test [10].

B6: chimeric antibody 060c (antibody, V domains shown)
VH: QVQLKESGPGLVAPSESLSITCTVSGFSLTNYDISWIRQSPGKGLEWLGVIWTGGDTNFNSAFMSRLSISKDKSKSQVFLKLNSLQTDDTAIYYCVRVQYFGGSYGPMDYWGQGISVTVSS
VL: DIQMTQASSYLSVSLGGRVTITCEASDHINDWLAWYQQTPGNAPRLLISGATSLETGVPSRFSGSGSGKDYTLSITSLQTEDIATYYCQQYWNTPLTFGAGTRLELK
On to B6, for which, in [1], the “Positive Staining Population (% in mCD11b, mF4/80 double positive subset)” value was 86%. In addition, the Kd in test [2] came out at 1.49 nM. Further, the binding result in [4] is recorded as “no binding”. For the same molecule, in [5], the Kd came to 1.49 nM, the off-rate constant (koff) turned out to be 0.000141 s⁻¹ and the on-rate constant (kon) is 94400 M⁻¹ s⁻¹.

B7: Antibody 022 (hybridoma antibody) (antibody, V domains shown)
VH: QIQLVQSGPELKKPGETVKISCKASGYTFTDYAMHWVKQAPGKGLKWMGWKNTETGESTYAEDFKGRFAFFLETSASTAYLQINNVKNEDTATYFCARGGYGSNYVMDYWGQGTSVIVSS
VL: DIQMTQSSSSFSVSLGDRVTITCKASEDIYNRLAWYQQKPGNAPRLLISGATSLETGVPSRFSGSGSGKDYTLSITSLQTEDVATYYCQQYWNSPRTFGGGTKLEIK
notes: mouse hybridoma antibody
As to B7, the “% Competition” value in test [7] was -1%; in [8] it was 4%; in [9], 0%; in [10] it was 81%.

B8: Antibody 074 (hybridoma antibody) (antibody, V domains shown)
VH: QVQLQQPRAELVKPGASVMLSCKASGYTFSSYWIHWVRQGPGQGLEWIGLIHPNSGNTDCSETFKNKATLTVDTSSSTAYMQLSSLASEDSAVYYCARDGASYDWFVHWGQGTLVTVSA
VL: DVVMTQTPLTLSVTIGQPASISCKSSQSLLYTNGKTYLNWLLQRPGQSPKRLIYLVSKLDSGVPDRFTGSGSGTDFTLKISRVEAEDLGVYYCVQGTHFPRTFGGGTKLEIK
notes: mouse hybridoma antibody
As to B8, the “% Competition” value in [7] is 92%; in test [8], 34%; in test [9], 10%; in [10] it was -5%.

B9: chimeric antibody 035c (antibody, V domains shown)
VH: QIQLVQSGPELRKPGETVKISCKASGYSFTNYAMNWVKQAPGKVLKWMGFINTYTGEPTYADDFKGRFAFSLETSASTAYLQINNLKNEDTATYFCTRTRGYYDFDGGAFDYWGQGTSLTVSS
VL: DIVMTQSQKFMSTSIGDRVSVTCKASQNVGTHLAWYQQKPGQSPKALIFSASYRYIGVPDRFTGSGSGTDFTLTITNVQSEDLAEYFCQQYNTYPLTFGAGTKLELK
Consider B9, for which, in test [1], the “Positive Staining Population (% in mCD11b, mF4/80 double positive subset)” value came to 91.3%. The dissociation constant Kd in [2] came out at 1.11 nM; in test [3] it was 2.62 nM; in test [4], 5270 nM; in [5] it was 1.11 nM; in test [6], 2.62 nM. Besides, the koff in test [4] stood at 0.0247 s⁻¹; in test [5], 0.000203 s⁻¹; in [6], 0.000154 s⁻¹. For the same molecule, the figures for the kon in [4], in test [5] and in test [6] were 4690 M⁻¹ s⁻¹, 183000 M⁻¹ s⁻¹ and 59000 M⁻¹ s⁻¹, respectively.
